This is an account of results in the supplement of paper PMC5998384.

The test system of data set [1] is HeLa Kyoto. Kind of data set: solubility change mitosis vs G1/S (difference of NP-40 vs SDS log2 ratios) (log2 ratio difference); higher = more soluble in mitosis.
Data set [2] deals with HeLa Kyoto. Kind of data set: thermal stability score vs G1/S (z-score of summed log2 fold changes over temperatures); higher = more thermally stable than in G1/S.
Data set [3] deals with HeLa Kyoto. Kind of data set: melting temperature (median over replicates), in situ; higher = more thermally stable.
Data set [4] concerns HeLa Kyoto. Kind of data set: solubility in G1/S (NP-40 vs SDS abundance) (log2 ratio); higher = more soluble. The settings on record: cell cycle stage: G1/S.
Where [5] appears, read: cell cycle stage: early G1 (4.5 h after nocodazole release).
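Wherever melting temperature (median over replicates), in situ is given: HeLa Kyoto cells synchronized by double thymidine or nocodazole block, proteins quantified by TMT10plex mass spectrometry, three independent biological replicates.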
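Wherever solubility change mitosis vs G1/S (difference of NP-40 vs SDS log2 ratios) is given: synchronized HeLa Kyoto cells (double thymidine block for G1/S, nocodazole release for mitosis), protein amounts in NP-40 versus SDS lysates quantified by mass spectrometry, three biological replicates.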
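Wherever solubility in G1/S (NP-40 vs SDS abundance) is given: HeLa Kyoto cells arrested at G1/S by double thymidine block, proteins quantified by TMT10plex mass spectrometry in mild NP-40 versus SDS extracts, three biological replicates.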
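Wherever thermal stability score vs G1/S (z-score of summed log2 fold changes over temperatures) is given: synchronized HeLa Kyoto cells, proteins quantified by TMT10plex mass spectrometry, three biological replicates, mitosis taken 0.5 h after nocodazole release, G1/S directly after double thymidine block.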

Chain of SLC7A2 (chain, as listed by the source): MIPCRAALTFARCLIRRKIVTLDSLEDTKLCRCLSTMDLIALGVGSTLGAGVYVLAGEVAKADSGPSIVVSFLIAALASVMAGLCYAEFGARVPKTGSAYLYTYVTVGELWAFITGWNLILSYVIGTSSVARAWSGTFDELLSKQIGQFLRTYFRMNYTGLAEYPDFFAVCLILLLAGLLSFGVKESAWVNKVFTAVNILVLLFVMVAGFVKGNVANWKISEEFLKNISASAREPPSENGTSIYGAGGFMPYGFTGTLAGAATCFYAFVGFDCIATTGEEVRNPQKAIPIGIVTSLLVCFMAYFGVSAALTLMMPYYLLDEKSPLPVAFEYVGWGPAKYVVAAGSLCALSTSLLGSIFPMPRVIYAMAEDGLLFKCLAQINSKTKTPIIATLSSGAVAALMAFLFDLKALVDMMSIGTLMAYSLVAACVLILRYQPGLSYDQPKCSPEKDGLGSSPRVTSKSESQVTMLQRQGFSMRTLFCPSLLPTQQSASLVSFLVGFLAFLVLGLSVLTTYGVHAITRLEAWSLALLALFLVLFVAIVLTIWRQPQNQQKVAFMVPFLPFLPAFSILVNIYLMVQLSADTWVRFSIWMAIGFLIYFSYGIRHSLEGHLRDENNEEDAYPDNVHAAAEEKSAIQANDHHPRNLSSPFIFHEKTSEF

Turning to “MDGFAGSLDDSISAASTSDVQDRLSALESRVQQQEDEITVLKAALADVLRRLAISEDHVASVKKSVSSKGQPSPRAVIPMSCITNGSGANRKPSHTSAVSIAGKETLSSAAKSGTEKKKEKPQGQREKKEESHSNDQSPQIRASPSPQPSSQPLQIHRQTPESKNATPTKSIKRPSPAEKSHNSWENSDDSRNKLSKIPSTPKLIPKVTKTADKHKDVIINQEGEYIKMFMRGRPITMFIPSDVDNYDDIRTELPPEKLKLEWAYGYRGKDCRANVYLLPTGKIVYFIASVVVLFNYEERTQRHYLGHTDCVKCLAIHPDKIRIATGQIAGVDKDGRPLQPHVRVWDSVTLSTLQIIGLGTFERGVGCLDFSKADSGVHLCIIDDSNEHMLTVWDWQKKAKGAEIKTTNEVVLAVEFHPTDANTIITCGKSHIFFWTWSGNSLTRKQGIFGKYEKPKFVQCLAFLGNGDVLTGDSGGVMLIWSKTTVEPTPGKGPKGVYQISKQIKAHDGSVFTLCQMRNGMLLTGGGKDRKIILWDHDLNPEREIEVPDQYGTIRAVAEGKADQFLVGTSRNFILRGTFNDGFQIEVQGHTDELWGLATHPFKDLLLTCAQDRQVCLWNSMEHRLEWTRLVDEPGHCADFHPSGTVVAIGTHSGRWFVLDAETRDLVSIHTDGNEQLSVMRYSIDGTFLAVGSHDNFIYLYVVSENGRKYSRYGRCTGHSSYITHLDWSPDNKYIMSNSGDYEILYWDIPNGCKLIRNRSDCKDIDWTTYTCVLGFQVFGVWPEGSDGTDINALVRSHNRKVIAVADDFCKVHLFQYPCSKAKAPSHKYSAHSSHVTNVSFTHNDSHLISTGGKDMSIIQWKLVEKLSLPQNETVADTTLTKAPVSSTESVIQSNTPTPPPSQPLNETAEEESRISSSPTLLENSLEQTVEPSEDHSEEESEEGSGDLGEPLYEEPCNEISKEQAKATLLEDQQDPSPSS [EML4]”, in data set [1], the “solubility change mitosis (log2)” value is -0.0416. Further, the thermal stability score in data set [2] (setting [5]) was -1.11; in data set [2] (cell cycle stage: mitosis), -1.34. In addition, the melting temperature in data set [3] (cell cycle stage: G1/S) stood at 51 °C; in data set [3] (cell cycle stage: mitosis) it was 50.3 °C. Also, the “solubility in G1/S (log2)” value in data set [4] was -0.0517.
With “MAVSVTPIRDTKWLTLEVCREFQRGTCSRPDTECKFAHPSKSCQVENGRVIACFDSLKGRCSRENCKYLHPPPHLKTQLEINGRNNLIQQKNMAMLAQQMQLANAMMPGAPLQPVPMFSVAPSLATNASAAAFNPYLGPVSPSLVPAEILPTAPMLVTGNPGVPVPAAAAAAAQKLMRTDRLEVCREYQRGNCNRGENDCRFAHPADSTMIDTNDNTVTVCMDYIKGRCSREKCKYFHPPAHLQAKIKAAQYQVNQAAAAQAAATAAAMTQSAVKSLKRPLEATFDLGIPQAVLPPLPKRPALEKTNGATAVFNTGIFQYQQALANMQLQQHTAFLPPVPMVHGATPATVSAATTSATSVPFAATATANQIPIISAEHLTSHKYVTQM [MBNL1]”, in data set [1], the “solubility change mitosis (log2)” value was determined as 0.353. For the same substance, the thermal stability score in data set [2] (setting [5]) was -3.27; in data set [2] (cell cycle stage: mitosis) it was -3.37. Also, the melting temperature in data set [3] (cell cycle stage: G1/S) was found to be 52.3 °C; in data set [3] (cell cycle stage: mitosis), 52.2 °C. Further, in data set [4], the “solubility in G1/S (log2)” value amounted to 0.11.
Consider SLC7A2, for which the “solubility change mitosis (log2)” value in data set [1] is -0.149. For the same substance, the thermal stability score in data set [2] (setting [5]) is -3.64; in data set [2] (cell cycle stage: mitosis) it was -8.3. In addition, the figures for the melting temperature in data set [3] (cell cycle stage: G1/S) and in data set [3] (cell cycle stage: mitosis) were 55.5 °C and 57 °C, respectively. Further, the “solubility in G1/S (log2)” value in data set [4] worked out at 0.0385.
For the substance “MEPSSLELPADTVQRIAAELKCHPTDERVALHLDEEDKLRHFRECFYIPKIQDLPPVDLSLVNKDENAIYFLGNSLGLQPKMVKTYLEEELDKWAKIAAYGHEVGKRPWITGDESIVGLMKDIVGANEKEIALMNALTVNLHLLMLSFFKPTPKRYKILLEAKAFPSDHYAIESQLQLHGLNIEESMRMIKPREGEETLRIEDILEVIEKEGDSIAVILFSGVHFYTGQHFNIPAITKAGQAKGCYVGFDLAHAVGNVELYLHDWGVDFACWCSYKYLNAGAGGIAGAFIHEKHAHTIKPALVGWFGHELSTRFKMDNKLQLIPGVCGFRISNPPILLVCSLHASLEIFKQATMKALRKKSVLLTGYLEYLIKHNYGKDKAATKKPVVNIITPSHVEERGCQLTITFSVPNKDVFQELEKRGVVCDKRNPNGIRVAPVPLYNSFHDVYKFTNLLTSILDSAETKN [KYNU]”, in data set [1], the “solubility change mitosis (log2)” value is -0.229. For the same substance, the figures for the thermal stability score in data set [2] (setting [5]) and in data set [2] (cell cycle stage: mitosis) were -0.273 and -0.415, respectively. The results for the melting temperature in data set [3] (cell cycle stage: G1/S) and in data set [3] (cell cycle stage: mitosis) were 61.5 °C and 62.3 °C, respectively. For the same substance, in data set [4], the “solubility in G1/S (log2)” value was found to be 0.121.
In the case of “MISAAQLLDELMGRDRNLAPDEKRSNVRWDHESVCKYYLCGFCPAELFTNTRSDLGPCEKIHDENLRKQYEKSSRFMKVGYERDFLRYLQSLLAEVERRIRRGHARLALSQNQQSSGAAGPTGKNEEKIQVLTDKIDVLLQQIEELGSEGKVEEAQGMMKLVEQLKEERELLRSTTSTIESFAAQEKQMEVCEVCGAFLIVGDAQSRVDDHLMGKQHMGYAKIKATVEELKEKLRKRTEEPDRDERLKKEKQEREEREKEREREREERERKRRREEEEREKERARDRERRKRSRSRSRHSSRTSDRRCSRSRDHKRSRSRERRRSRSRDRRRSRSHDRSERKHRSRSRDRRRSKSRDRKSYKHRSKSRDREQDRKSKEKEKRGSDDKKSSVKSGSREKQSEDTNTESKESDTKNEVNGTSEDIKSEGDTQSN [LUC7L3]”, in data set [1], the “solubility change mitosis (log2)” value was 0.0899. The thermal stability score in data set [2] (setting [5]) worked out at 0.00947; in data set [2] (cell cycle stage: mitosis), 2.68. The melting temperature came to 50.1 °C in data set [3] (cell cycle stage: G1/S) and 50.8 °C in data set [3] (cell cycle stage: mitosis). Moreover, the “solubility in G1/S (log2)” value in data set [4] is -0.95.
PNKP: in data set [1], the “solubility change mitosis (log2)” value was -0.0487. For the same substance, the thermal stability score was determined as 0.324 in data set [2] (setting [5]) and 1.25 in data set [2] (cell cycle stage: mitosis). For the same substance, the melting temperature in data set [3] (cell cycle stage: G1/S) stood at 48.6 °C; in data set [3] (cell cycle stage: mitosis) it was 49.3 °C. Besides, the “solubility in G1/S (log2)” value in data set [4] came out at 0.193.
Regarding “MAQALSEEEFQRMQAQLLELRTNNYQLSDELRKNGVELTSLRQKVAYLDKEFSKAQKALSKSKKAQEVEVLLSENEMLQAKLHSQEEDFRLQNSTLMAEFSKLCSQMEQLEQENQQLKEGAAGAGVAQAGPLVDGELLRLQAENTALQKNVAALQERYGKEAGKFSAVSEGQGDPPGGLAPTVLAPMPLAEVELKWEMEKEEKRLLWEQLQGLESSKQAETSRLQEELAKLSEKLKKKQESFCRLQTEKETLFNDSRNKIEELQQRKEADHKAQLARTQKLQQELEAANQSLAELRDQRQGERLEHAAALRALQDQVSIQSADAQEQVEGLLAENNALRTSLAALEQIQTAKTQELNMLREQTTGLAAELQQQQAEYEDLMGQKDDLNSQLQESLRANSRLLEQLQEIGQEKEQLTQELQEARKSAEKRKAMLDELAMETLQEKSQHKEELGAVRLRHEKEVLGVRARYERELRELHEDKKRQEEELRGQIREEKARTRELETLQQTVEELQAQVHSMDGAKGWFERRLKEAEESLQQQQQEQEEALKQCREQHAAELKGKEEELQDVRDQLEQAQEERDCHLKTISSLKQEVKDTVDGQRILEKKGSAALKDLKRQLHLERKRADKLQERLQDILTNSKSRSGLEELVLSEMNSPSRTQTGDSSSISSFSYREILREKESSAVPARSLSSSPQAQPPRPAELSDEEVAELFQRLAETQQEKWMLEEKVKHLEVSSASMAEDLCRKSAIIETYVMDSRIDVSVAAGHTDRSGLGSVLRDLVKPGDENLREMNKKLQNMLEEQLTKNMHLHKDMEVLSQEIVRLSKECVGPPDPDLEPGETS [GRIPAP1]”, the “solubility change mitosis (log2)” value in data set [1] is -0.112. Moreover, the thermal stability score was 0.674 in data set [2] (setting [5]) and -0.142 in data set [2] (cell cycle stage: mitosis). The melting temperature turned out to be 49.3 °C in data set [3] (cell cycle stage: G1/S) and 49.8 °C in data set [3] (cell cycle stage: mitosis). In data set [4], the “solubility in G1/S (log2)” value was determined as 0.476.
